Reference: patent US20110027337A1 (IFXA A S, published 2011)

T1: PIfXa (KPI A-k1, Kunitz protease inhibitor purified from potato tuber, Solanum tuberosum cv. Kuras; SEQ ID NO:1)
T1 sequence: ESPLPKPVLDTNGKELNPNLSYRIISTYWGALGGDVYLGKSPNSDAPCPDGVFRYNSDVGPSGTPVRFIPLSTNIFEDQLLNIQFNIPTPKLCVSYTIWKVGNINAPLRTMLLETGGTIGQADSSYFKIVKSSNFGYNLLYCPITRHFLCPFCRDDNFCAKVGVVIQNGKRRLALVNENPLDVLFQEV

T2: fraction B11SI (cation exchange fraction from potato juice; major inhibitor KPI A-k1, SEQ ID NO:1)
T2 sequence: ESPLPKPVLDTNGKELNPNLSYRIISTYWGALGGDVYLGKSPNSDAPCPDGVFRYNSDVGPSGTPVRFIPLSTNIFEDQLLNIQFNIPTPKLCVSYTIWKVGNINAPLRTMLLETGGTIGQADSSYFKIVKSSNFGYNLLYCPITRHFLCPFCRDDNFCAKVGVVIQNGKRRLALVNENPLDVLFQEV

T3: factor Xa (fXa)
T3 chain 1: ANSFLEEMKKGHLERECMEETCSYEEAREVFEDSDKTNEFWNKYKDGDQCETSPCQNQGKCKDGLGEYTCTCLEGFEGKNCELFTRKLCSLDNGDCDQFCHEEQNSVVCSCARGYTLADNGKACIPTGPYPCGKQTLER
T3 chain 2: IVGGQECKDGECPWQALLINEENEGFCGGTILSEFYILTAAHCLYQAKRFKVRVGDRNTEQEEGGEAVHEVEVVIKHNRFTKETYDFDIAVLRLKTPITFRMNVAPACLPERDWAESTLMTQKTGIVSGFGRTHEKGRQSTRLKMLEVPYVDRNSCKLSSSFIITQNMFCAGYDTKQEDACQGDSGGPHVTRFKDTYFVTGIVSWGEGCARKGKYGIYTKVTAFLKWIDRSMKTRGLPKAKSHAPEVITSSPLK


Assays:
[1] = tested on: T1, PIfXa (KPI A-k1, Kunitz protease inhibitor purified from potato tuber, Solanum tuberosum cv. Kuras; SEQ ID NO:1)
[2] = tested on: T2, fraction B11SI (cation exchange fraction from potato juice; major inhibitor KPI A-k1, SEQ ID NO:1)
factor Xa (fXa) [3] = target: T3, factor Xa (fXa); assay: amidolytic activity assay: chromozym t-PA hydrolysis by 50 nM fXa, competitive inhibition fit, in the presence of 1 U/mL heparin
factor Xa (fXa) [4] = target: T3, factor Xa (fXa); assay: amidolytic activity assay: chromozym t-PA hydrolysis by 50 nM fXa, competitive inhibition fit (GraphPad Prism)

Molecule | reaction rate of chromozym t-PA hydrolysis by 25 nM fXa with 100 µg/mL PIfXa, no antibody (Ctrl without PIfXa 19.2) [1] [µM/min] | reaction rate of chromozym t-PA hydrolysis by fXa with PIfXa, before addition of antibody (sample PlfXa 1:1) [1] [µM/min] | reaction rate of chromozym t-PA hydrolysis by fXa with PIfXa, before addition of antibody (sample PlfXa 1:2.5) [1] [µM/min] | reaction rate of chromozym t-PA hydrolysis by fXa with PIfXa, before addition of antibody (sample PlfXa 1:5) [1] [µM/min] | reaction rate of chromozym t-PA hydrolysis by fXa with PIfXa, before addition of antibody (sample PlfXa 1:10) [1] [µM/min] | KM of chromozym t-PA hydrolysis by fXa with B11SI (fXa alone 0.23) [2] [µM] | KM of chromozym t-PA hydrolysis by fXa with B11SI and heparin [2] [µM] | Vmax of chromozym t-PA hydrolysis by fXa with B11SI (fXa alone 8.8 · 10^-2) [2] [mM/min] | Vmax of chromozym t-PA hydrolysis by fXa with B11SI and heparin [2] [mM/min] | Ki (factor Xa (fXa) [3]) [nM] | Ki (factor Xa (fXa) [4]) [nM]
factor Xa (fXa) | 2 | 2.1 | 2.1 | 2.2 | 1.4 | 1250 | 1180 | 0.026 | 0.023 | – | –
fraction B11SI (cation exchange fraction from potato juice; major inhibitor KPI A-k1, SEQ ID NO:1) (other, A chromatography fraction, not a pure protein; By nESI the highest peak is 20,830 Da (KPI A-k1 N-terminal variant 3), with further peaks for variants 4, 2 and 1; also called B1151) ESPLPKPVLDTNGKELNPNLSYRIISTYWGALGGDVYLGKSPNSDAPCPDGVFRYNSDVGPSGTPVRFIPLSTNIFEDQLLNIQFNIPTPKLCVSYTIWKVGNINAPLRTMLLETGGTIGQADSSYFKIVKSSNFGYNLLYCPITRHFLCPFCRDDNFCAKVGVVIQNGKRRLALVNENPLDVLFQEV | – | – | – | – | – | – | – | – | – | 101 | 114
